test: soluble on expression in E. coli; label from the status in PepcDB or PDB records

| Sequence | soluble on expression in E. coli |
| --- | --- |
| PESPLRSGRREIANILGVAAQVQRQVAEALRNNNTDGIVDALVRARGTQGQINQMIAAANMGKETIQASPLLWAQRQRIRSMMRILNPVDNAMRNTRVLARRALVLCEDNDEVSGRQIQIIEQLAEVSEDLSNLYYGNSKLSENAEIPRLVNNLKMIGSRTGLEVSEGKVLSAQVVLAQSRSLVVDLLQICGQSRRSAVEILSPTSMHPASVKEIWNDDV | not soluble |
| EEQIMRRNEDSWLIDGATPLEDVMRALNIHTFPRDENYETIGGFMMYMLRKIPKKTDFVLYDKYKFEIIDTENFRIDQLMVSFRK | soluble |
| MFQIYEIFSSVFNFDPKMPENVGVKEDDDKVFAKEIAQLEEEFEANTLKAESLEKEIAYSKVQIETENVKFAAIEQEKAIEIIKLEKQIKIMEAKLDFMKQDPIEIEEIEKLKHRVEEETQRNTEYAESLKYIKEMIRIKKAEKNEKKQKNAIDN | not soluble |
| MENILEVNQIKKYYKIKTGLLQKTQYVKAVDDVSFSIKKGQTFGLVGESGCGKSTLGKVIIRLEDATSGSIIVNGEDITRLQGKKLRKSRQQYQMIFQDPYASLNPMQMVGDIISEPILNYKKLPKEEIKKEVLYLLKCVGLSEDAYYKYAHEFSGGQRQRVGIARALALRPSLIVADEPVSALDVSVQSQVLNLLKDLQEQFNLSYLFIAHDLSVVKHISDVIGVMYLGHIVEIASDKEIYENPKHPYTKALISSIPQIDKHNNNRIILKGELPSPSNPPQGCPFHTRCPIAQDMCKKSMPELKDIGNEHQVACFYVDKVGDLND | not soluble |
| MRRAELAGLKTMAWVPAESAVEELMPRLLPVEPCDLTEGFDPSVPPRTPQEYLRRVQIEAAQCPDVVVAQIDPKKLKRKQSVNISLSGCQPAPEGYSPTLQWQQQQVAQFSTVRQNVNKHRSHWKSQQLDSNVTMPKSEDEEGWKKFCLGEKLCADGAVGPATNESPGIDYVQIGFPPLLSIVSRMNQATVTSVLEYLSNWFGERDFTPELGRWLYALLACLEKPLLPEAHSLIRQLARRCSEVRLLVDSKDDERVPALNLLICLVSRYFDQRDLADEPSLEHHHHHH | soluble |
| MTDYLNVGKIVNTQGIKGEVRVISKTDFPEERYQKGAMLLLFQEKKAPIELVVKSHRKHKNFDILSFEGHPNINDVEKYRDGILKVAKDNLAELAEDEFYYHQIIGATVYDETGSELGKIKEILSPGANDVWVVQRPKKKDLLLPYIEGVVTKVDVENQRIDVDIPEGLIDDENLEHHHHHH | soluble |
| SKLNQNTMLVGKKVVLVPYTSEHVPRYHEWMKSEELRHLTASEQLTLQQEYEMQCSWCEDEDKCTFIVLDAEKWQAQPRPPEESCMVGDVNLFLTDLEDPTLGEIEVMIAEPSYRRQGLGTEASLLIMSYGVTKLGLTKFEAKIGQENEPSIRMFQKLHFKQVAMSNVFQEVTLRLAVSEPERKWILEQTSHMEERPYRTRKAEPVTATLSEQKSWNCPLPRPDGCMGDTSAVSSVCARLS | soluble |
| MGSDKIHHHHHHMKTSPRSNRLHIALFGKRNSGKSSLINALTNQNAALVSDIAGTTTDPVYQPMEIHGIGPCVFIDTAGFDDEGELGSLRIERTLQAADKADIALMVCCDTELSEEQRWIELLKERNIPYLLVLNKADLLEKPDEVADKLEQQTGQHPLIVSAKEKTGIDSIRQSILHRLPELNEQPDIVGDLANEGDVVLLVMPQDIQAPKGRLILPQVQTLRELLDKKCITLSCTTDQLDNALKALSVPPSLIITDSQVFRTVYEKKPPQSRLTSFSVLFARYKGDIDYYTEGAYIIDQLTENSRVLIAEACTHAPLSEDIGRVKLPRMLRKRIGEKLHIDIVSGNDFPKDLNCYDLIIHCGACMFNRKHVLNRIVKAKAQGVPMTNYGIVIAYINGIPFH | not soluble |
| MGSDKIHHHHHHMDLQYLDNFLALAHYRSFSAAADACYISQSSFSKRIMRLENNLGVTLFERSTRQVSLTEYGQIYLKYAQQIKTLSRQATDEINRRHAEDEGIVIGGIPSISEYGILDLISGFIKTTHIHCQVKSAPSEDLEPMLLNQTLDFAFIKEVHHTNLFYQLPYAEDHLVAVLPANHPLANLSEIKLQQLANEDFIFQPVNSRPYELCMMICKQNGFTPNVIYADRIIENILNFVKKGLGVSLLMEKLVPKDSELICLPIHPAVVADINLCYLKKEPLSQYGYAFLNYFSHQNNAR | not soluble |
| MDWIESVKSYIKVVEEGSFNAAAYQLNTSGSAISKRINWLEERVGVQLLTRTTRSVHQTEAGLLFYQRARLQLDQWQHLVDETRAINQTPAGLLKIGATLAVGSKFIIKYLDEFLATYPKIKVQLITTLPGQVPEHNVDVFISRELEQLNTFSYKATHLFEHHSGFFASKDYLDKYGTPNNINELKAHNMLIWGERPIKEIKLTNNKRVTLRGNFATTNPEALFHAAKRGMGILLTSQQMVIDDLQSGALVPILPEITTDHTRVNAYYPTLDYEHTRTQLFIKYLKTKLS | not soluble |
| GPGSMTSPKIKAVFVDMDGTLFNSDHLISPRTAKVIHALEERGVAFVVATGRPFPDVFGNLAQTELRPDFIITSNGARVHDAQHNILFACDMDAESVCRLFQLSPHLSEDGVVDPSVQARRILCNVNCRDRWLTNECIPEVRAAFHPSFIYERVDPMVQTAKTLEGTHSMWIRGAHADLVCVQKYVDRELSGEIRCAFALPHILDCFRKDVNKGAAMEKVCKHLRIDLRETIAFGDGMNDIRMLTAAGQGFVMANAAEMVKQAAPELPVIQSNNEEGVAWKLEELLAADAFVG | soluble |
| LDDYDWFAGNISRSQSEQLLRQKGKEGAFMVRNSSQVGMYTVSLFSKAVNDKKGTVKHYHVHTNAENKLYLAENYCFDSIPKLIHYHQHNSAGMITRLRHPVS | soluble |
| MIDFSNFYQLIAKSPLSHWLETLPAQVAAWQRDALHGKFREWERAVEFLPELTPWRLDLLHSVTAESETPLSEGHQRRIENLLKNLMPWRKGPYSLYGINIDTEWRSDWKWERVLPHLSDLTGRTILDVGCGSGYHMWRMIGAGAHLAVGIDPTQLFLCQFEAVRKLLGNDQRAHLLPLGIEQLPALEAFDTVFSMGVLYHRRSPLDHLWQLKDQLAPGGELVLETLVVEGDENTVLVPGDRYAQMRNVYFIPSAAALKMWLEKCGFIDVRIVDACVTSTEEQRRTEWMTTESLADFLDPQDQRKTVEGYPAPLRAVIIATKPETQQSLAKKAR | not soluble |
| GPGSMDGFRLYMEGISLPEGSMRRANAELIGAINSPDPMVQHSGLQMLCDQLTMSSFISPSTMTTIPLVLPSLLRCIASSQVREVFITAARALTYIIDAFPRTFETFPTRDTLIEVLLQHLRSIQDVELSEQCITCLEMITRSQTGSRELLHNNGVEAVLGFADFFTLHKQRQIWTIVQRLVGEVDESSVQHITACLPTLRIGMTNGDSEIRQKAIATLAQAIEGVKTDRAIVETVFGDAADRIAVLLHERDVNDDTLSSALSLLYAGVQWSAGIAASVIQSDLLNTLLSLLQSTPVPAVVAEQHTAPSAGAGRVARRSAAAELVVGRDSTTDSGGGAGTEPAAARTTMLTSHQRTIVCRLLASLLIPCRTGAAEQLERLEMLTQRPLLTGARAHGKPVGHGRRR | not soluble |
| MGSDKIHHHHHHMKTKVAAIYGKRDVRLRVFELPEITDNELLVSVISDSVCLSTWKAALLGSEHKRVPDDLENHPVITGHECAGVIVEVGKNLTGKYKKGQRFVLQPAMGLPSGYSAGYSYEYFGGNATYMIIPEIAINLGCVLPYHGSYFAAASLAEPMCCIIGAYHANYHTTQYVYEHRMGVKPGGNIALLACAGPMGIGAIDYAINGGIQPSRVVVVDIDDKRLAQVQKLLPVELAASKGIELVYVNTKGMSDPVQMLRALTGDAGFDDIFVYAAVPAVVEMADELLAEDGCLNFFAGPTDKNFKVPFNFYNVHYNSTHVVGTSGGSTDDMKEAIALSATGQLQPSFMVTHIGGLDAVPETVLNLPDIPGGKKLIYNGVTMPLTAIADFAEKGKTDPLFKELARLVEETHGIWNEQAEKYLLAQFGVDIGEAAQ | not soluble |

— the DeepSol protein solubility set
